Measured values taken from US20180333469.
Entries after “also recorded” stand apart in the source; their conditions may differ.

B1: wild-type factor Xa (fXa) (protein)
chain 1: ANSFLEEMKKGHLERECMEETCSYEEAREVFEDSDKTNEFWNKYKDGDQCETSPCQNQGKCKDGLGEYTCTCLEGFEGKNCELFTRKLCSLDNGDCDQFCHEEQNSVVCSCARGYTLADNGKACIPTGPYPCGKQTLER
chain 2: IVGGQECKDGECPWQALLINEENEGFCGGTILSEFYILTAAHCLYQAKRFKVRVGDRNTEQEEGGEAVHEVEVVIKHNRFTKETYDFDIAVLRLKTPITFRMNVAPACLPERDWAESTLMTQKTGIVSGFGRTHEKGRQSTRLKMLEVPYVDRNSCKLSSSFIITQNMFCAGYDTKQEDACQGDSGGPHVTRFKDTYFVTGIVSWGEGCARKGKYGIYTKVTAFLKWIDRSMKTRGLPKAKSHAPEVITSSPLK
B2: fVIIa/TF enzyme complex (protein)
chain 1: ANAFLEELRPGSLERECKEEQCSFEEAREIFKDAERTKLFWISYSDGDQCASSPCQNGGSCKDQLQSYICFCLPAFEGRNCETHKDDQLICVNENGGCEQYCSDHTGTKRSCRCHEGYSLLADGVSCTPTVEYPCGKIPILEKRNASKPQGRIVGGKVCPKGECPWQVLLLVNGAQLCGGTLINTIWVVSAAHCFDKIKNWRNLIAVLGEHDLSEHDGDEQSRRVAQVIIPSTYVPGTTNHDIALLRLHQPVVLTDHVVPLCLPERTFSERTLAFVRFSLVSGWGQLLDRGATALELMVLNVPRLMTQDCLQQSRKVGDSPNITEYMFCAGYSDGSKDSCKGDSGGPHATHYRGTWYLTGIVSWGQGCATVGHFGVYTRVSQYIEWLQKLMRSEPRPGVLLRAPFP
chain 2: SGTTNTVAAYNLTWKSTNFKTILEWEPKPVNQVYTVQISTKSGDWKSKCFYTTDTECDLTDEIVKDVKQTYLARVFSYPAGNVESTGSAGEPLYENSPEFTPYLETNLGQPTIQSFEQVGTKVNVTVEDERTLVRRNNTFLSLRDVFGKDLIYTLYYWKSSSSGKKTAKTNTNEFLIDVDKGENYCFSVQAVIPSRTVNRKSTDSPVECMGQEKGEFREIFYIIGAVVFVVIILVIILAISLHKCRKAGVGQSWKENSPLNVS

Target: tissue factor pathway inhibitor (TFPI), P10646
Sequence (P10646 whole entry, looked up): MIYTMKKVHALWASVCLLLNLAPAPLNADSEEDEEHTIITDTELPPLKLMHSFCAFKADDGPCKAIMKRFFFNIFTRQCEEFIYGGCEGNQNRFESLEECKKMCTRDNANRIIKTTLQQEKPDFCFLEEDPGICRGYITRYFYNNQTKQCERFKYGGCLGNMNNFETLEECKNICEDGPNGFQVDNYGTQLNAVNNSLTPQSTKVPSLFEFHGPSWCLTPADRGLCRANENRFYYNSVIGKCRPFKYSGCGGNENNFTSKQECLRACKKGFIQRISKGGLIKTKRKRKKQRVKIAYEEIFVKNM

Row | Protein | fXa chromogenic activity (cleavage of Spectrozyme-fXa, 100 µM) after 2 hour incubation | fXa formation from fX (170 nM) by fVIIa/TF, measured by Spectrozyme-Xa cleavage
1 | B1 | For fXa at both 0.5 nM and 1 nM, a 2 nM concentration of TFPI was enough to almost completely inhibit the activity of fXa; also recorded: Such inhibition was also significant when TFPI's concentration was at 1 nM | –
2 | B2 | – | fXa combined with TFPI (included at the physiological concentration of 2.4 nM) and rapidly inhibited fVIIa/TF activity
